Source: PMC11169341, “Development of DNA aptamers targeting B7H3 by hybrid-SELEX: an alternative to antibodies for immuno-assays”

These binders were tested against T1, recombinant human B7-H3 His-tag (R&D 1949-B3-050) (Homo sapiens, UniProt Q5ZPR3-2 29-245) (assay: dot blot; FITC aptamer, 10 ng protein on membrane; ABB: AWB (composition not given) + 0.1 mg/ml yeast tRNA, 0.1 mg/ml salmon sperm DNA, 5% FBS, 1 mg/ml BSA; 60 min; 0-500 nM aptamer; flow binding assay on ice, dot-blot temperature and pH not stated). Conditions: protein: commercial; tags: C-terminal His; label: FITC or biotin.
T1 sequence: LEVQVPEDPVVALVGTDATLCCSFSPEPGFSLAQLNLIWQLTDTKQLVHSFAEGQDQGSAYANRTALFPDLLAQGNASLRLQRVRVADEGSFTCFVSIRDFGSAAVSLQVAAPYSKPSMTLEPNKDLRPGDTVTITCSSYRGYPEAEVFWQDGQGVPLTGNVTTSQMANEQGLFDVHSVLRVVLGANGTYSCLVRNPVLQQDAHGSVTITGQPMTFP

Binder	Kd [nM]
VRF-HS_B7H3-01 (ssDNA) DNA: TAGGGAAGAGAAGGACATATGATACAGCACGGTATGACGAGTCCATTGTGTGTGCAGCTCGCTAATTGACTAGTACATGACCACTT	19.2 ± 4.4
VRF-HS_B7H3-02 (ssDNA) DNA: TAGGGAAGAGAAGGACATATGATCGCCCCTCTTTTCGATTTCAAGCTCCTAACCCACACCTCTTTGACTAGTACATGACCACTT	24.6 ± 3.69
VRF-HS_B7H3-03 (ssDNA) DNA: TAGGGAAGAGAAGGACATATGATATAAGTGACACATCAATCTCATGCGGATGAACCAGTGCGTTTGACTAGTACATGACCACTT	22.7 ± 3.71
VRF-HS_B7H3-05 (ssDNA) DNA: TAGGGAAGAGAAGGACATATGATTGAGAAGTCACGCCACTTACCTGCGCTCAAAACCTCAGAATTGACTAGTACATGACCACTT	32.7 ± 4.56
VRF-HS_B7H3-04 (ssDNA) DNA: TAGGGAAGAGAAGGACATATGATTGCCCCTGACACTTACACGCCACTATCAAGGCACACGCCATTGACTAGTACATGACCACTT	31.5 ± 4.02
